Consider 3 molecules from patent publication US20200016315A1 (SYDDANSK UNIVERSITET, published 2020).

For experiment [1], the target named is T1, hemoglobin (human, UniProt P69905 2-142; P68871 2-147).
T1 construct: also called Hb; human Hb
As to the kind of experiment: raw plasma without added hemoglobin mixed with equal volume of protein-Sepharose, supernatant on Cobas 6000; not corrected for dilution; no Sepharose 7, sham Sepharose 0.

The target of experiment [2] is T1, hemoglobin. As to the kind of experiment: plasma with 3 g/l added hemoglobin mixed with equal volume of protein-Sepharose, supernatant on Cobas 6000; not corrected for dilution; no Sepharose 80, sham Sepharose 25.

B1: IsdH N1N2N3 (residues 82-655), wild type (receptor)
chain: NYPAADESLKDAIKDPALENKEHDIGPREQVNFQLLDKNNETQYYHFFSIKDPADVYYTKKKAEVELDINTASTWKKFEVYENNQKLPVRLVSYSPVPEDHAYIRFPVSDGTQELKIVSSTQIDDGEETNYDYTKLVFAKPIYNDPSLVKSDTNDAVVTNDQSSSVASNQTNTNTSNQNISTINNANNQPQATTNMSQPAQPKSSTNADQASSQPAHETNSNGNTNDKTNESSNQSDVNQQYPPADESLQDAIKNPAIIDKEHTADNWRPIDFQMKNDKGERQFYHYASTVEPATVIFTKTGPIIELGLKTASTWKKFEVYEGDKKLPVELVSYDSDKDYAYIRFPVSNGTREVKIVSSIEYGENIHEDYDYTLMVFAQPITNNPDDYVDEETYNLQKLLAPYHKAKTLERQVYELEKLQEKLPEKYKAEYKKKLDQTRVELADQVKSAVTEFENVTPTNDQLTDLQEAHFVVFESEENSESVMDGFVEHPFYTATLNGQKYVVMKTKDDSYWKDLIVEGKRVTTVSKDPKNNSRTLIFPYIPDKAVYNAIVKVVVANIGYEGQYHVRIINQDI
modifications: coupled through primary amines to CNBr-activated Sepharose
notes: In the assay the protein was immobilized on Sepharose; also called IsdH N1N2N3 wt; N1N2N3-Seph; not shown: vector-encoded His6 tag of pET-15b
Consider B1, for which the results for the “H-index of supernatant (hemoglobin left after removal)” value (“H-index of supernatant” below) in the experiment with hemoglobin [1] and in the experiment with hemoglobin [2] were 0 mg/dL and 12 mg/dL, respectively.

B2: IsdH N1N2N3 Y642A (receptor)
chain: NYPAADESLKDAIKDPALENKEHDIGPREQVNFQLLDKNNETQYYHFFSIKDPADVYYTKKKAEVELDINTASTWKKFEVYENNQKLPVRLVSYSPVPEDHAYIRFPVSDGTQELKIVSSTQIDDGEETNYDYTKLVFAKPIYNDPSLVKSDTNDAVVTNDQSSSVASNQTNTNTSNQNISTINNANNQPQATTNMSQPAQPKSSTNADQASSQPAHETNSNGNTNDKTNESSNQSDVNQQYPPADESLQDAIKNPAIIDKEHTADNWRPIDFQMKNDKGERQFYHYASTVEPATVIFTKTGPIIELGLKTASTWKKFEVYEGDKKLPVELVSYDSDKDYAYIRFPVSNGTREVKIVSSIEYGENIHEDYDYTLMVFAQPITNNPDDYVDEETYNLQKLLAPYHKAKTLERQVYELEKLQEKLPEKYKAEYKKKLDQTRVELADQVKSAVTEFENVTPTNDQLTDLQEAHFVVFESEENSESVMDGFVEHPFYTATLNGQKYVVMKTKDDSYWKDLIVEGKRVTTVSKDPKNNSRTLIFPYIPDKAVYNAIVKVVVANIGAEGQYHVRIINQDI
modifications: coupled through primary amines to CNBr-activated Sepharose
notes: also called N1N2N3-Y642A-Seph; Y642A mutant; not shown: vector-encoded His6 tag of pET-15b
Take B2: the “H-index of supernatant” value was 0 mg/dL with hemoglobin [1] and 8 mg/dL in the experiment with hemoglobin [2].

B3: IsdH^N1 (residues 86-229) with N-terminal His6 tag and thrombin cleavage site (receptor)
chain: DIGPREQVNFQLLDKNNETQYYHFFSIKDPADVYYTKKKAEVELDINTASTWKKFEVYENNQKLPVRLVSYSPVPEDHAYIRFPVSDGTQELKIVSSTQIDDGEETNYDYTKLVFAKPIYNDPSL
modifications: coupled through primary amines to CNBr-activated Sepharose
notes: also called N1 Seph; not shown: added N-terminal His6 tag and thrombin cleavage site
Turning to B3, the figures for the “H-index of supernatant” value with hemoglobin [1] and with hemoglobin [2] were 0 mg/dL and 29 mg/dL, respectively.
